{
  "source": "patent US20140336126A1",
  "about": "(INSTITUT PASTEUR, published 2014)",
  "binders": {"B1": {"name": "HA-Optn Δ131-297 (other)", "chain": "MSHQPLSCLTEKEDSPSESTGNGPPHLAHPNLDTFTPEELLQQMKELLTENHQLKEAMKLNNQAMKGRFEELSAWTEKQKEERQFFEIQSKEAKERLMALSHENEKLKEELGKLKGKSERSSEDPTDDSREVEALNLQVTSLFKELQEAHTKLSKAELMKKRLQEKCQALERKNSAIPSELNEKQELVYTNKKLELQVESMLSEIKMEQAKTEDEKSKLTVLQMTHNKLLQEHNNALKTIEELTRKESEKVDRAVLKELSEKLELAEKALASKQLQMDEMKQTIAKQEEDLETMTILRAQMEVYCSDFHAERAAREKIHEEKEQLALQLAVLLKENDAFEDGGRQSLMEMQSRHGARTSDSDQQAYLVQRGAEDRDWRQQRNIPIHSCPKCGEVLPDIDTLQIHVMDCII"}, "B2": {"name": "myosin phosphatase targeting subunit 1 (MYPT1) (other)", "chain": "MKMADAKQKRNEQLKRWIGSETDLEPPVVKRQKTKVKFDDGAVFLAACSSGDTDEVLKLLHRGADINYANVDGLTALHQACIDDNVDMVKFLVENGANINQPDNEGWIPLHAAASCGYLDIAEFLIGQGAHVGAVNSEGDTPLDIAEEEAMEELLQNEVNRQGVDIEAARKEEERIMLRDARQWLNSGHINDVRHAKSGGTALHVAAAKGYTEVLKLLIQAGYDVNIKDYDGWTPLHAAAHWGKEEACRILVDNLCDMEMVNKVGQTAFDVADEDILGYLEELQKKQNLLHSEKRDKKSPLIESTANMDNNQSQKTFKNKETLIIEPEKNASRIESLEQEKVDEEEEGKKDESSCSSEEDEEDDSESEAETDKTKPLASVTNANTSSTQAAPVAVTTPTVSSGQATPTSPIKKFPTTATKISPKEEERKDESPATWRLGLRKTGSYGALAEITASKEGQKEKDTAGVTRSASSPRLSSSLDNKEKEKDSKGTRLAYVAPTIPRRLASTSDIEEKENRDSSSLRTSSSYTRRKWEDDLKKNSSVNEGSTYHKSCSFGRRQDDLISSSVPSTTSTPTVTSAAGLQKSLLSSTSTTTKITTGSSSAGTQSSTSNRLWAEDSTEKEKDSVPTAVTIPVAPTVVNAAASTTTLTTTTAGTVSSTTEVRERRRSYLTPVRDEESESQRKARSRQARQSRRSTQGVTLTDLQEAEKTIGRSRSTRTREQENEEKEKEEKEKQDKEKQEEKKESETSREDEYKQKYSRTYDETYQRYRPVSTSSSTTPSSSLSTMSSSLYASSQLNRPNSLVGITSAYSRGITKENEREGEKREEEKEGEDKSQPKSIRERRRPREKRRSTGVSFWTQDSDENEQEQQSDTEEGSNKKETQTDSISRYETSSTSAGDRYDSLLGRSGSYSYLEERKPYSSRLEKDDSTDFKKLYEQILAENEKLKAQLHDTNMELTDLKLQLEKATQRQERFADRSLLEMEKRERRALERRISEMEEELKMLPDLKADNQRLKDENGALIRVISKLSK", "notes": "also called HA-MYPT1; HA-tagged-MYPT1"}, "B3": {"name": "type 1 protein phosphatase catalytic subunit PP1β (enzyme, UniProt P62140 1-327, looked up)", "chain": "MADGELNVDSLITRLLEVRGCRPGKIVQMTEAEVRGLCIKSREIFLSQPILLELEAPLKICGDIHGQYTDLLRLFEYGGFPPEANYLFLGDYVDRGKQSLETICLLLAYKIKYPENFFLLRGNHECASINRIYGFYDECKRRFNIKLWKTFTDCFNCLPIAAIVDEKIFCCHGGLSPDLQSMEQIRRIMRPTDVPDTGLLCDLLWSDPDKDVQGWGENDRGVSFTFGADVVSKFLNRHDLDLICRAHQVVEDGYEFFAKRQLVTLFSAPNYCGEFDNAGGMMSVDETLMCSFQILKPSEKKAKYQYGGLNSGRPVTPPRTANPPKKR", "notes": "Endogenous protein or transfected Flag-tagged PP1β (ImaGenes), as said under assay; also called PP1cβ; Flag-tagged-PP1β"}},
  "key": {"[1]": {"molecular_target": "B2", "assay": "anti-MYPT1 immunoprecipitation, anti-HA Western blot, transfected HeLa cells (FIG. 4D)"}, "[2]": {"molecular_target": "T1, Optineurin (Optn), wild type (human, UniProt Q96CV9 1-577)", "T1 construct": "Full-length wild-type human Optn; also called Optn WT; HA-Optn", "assay": "TAP and co-immunoprecipitations, title of FIG. 4"}, "[3]": {"molecular_target": "B2", "assay": "anti-Flag immunoprecipitation of Flag-PP1β, transfected HEK-293T cells (FIG. 4B)"}},
  "data": [
    {"binder": "B1", "values": [
      {"measurement": "binding result", "setting": "[1]", "value": "no binding"}
    ]},
    {"binder": "B2", "values": [
      {"measurement": "binding result", "setting": "[2]", "value": "binds"}
    ]},
    {"binder": "B3", "values": [
      {"measurement": "binding result", "setting": "[3]", "value": "binds"}
    ]}
  ]
}
